Target: EGFP (UniProt P42212 1-238 = GFP)
Test: Biacore (SPR)

B1: GBP6 nanobody alone (VHH)
VHH: QVQLQESGGGSVQTGGSLRLSCAVSPYIGSRISLGWFRQAPGKVREGVALINSRDGSTYYADTVKGRFTISQGDANTVYLQMNSLKPEDTAIYYCAARWGQITDIQALAVASFPDWGQGTQVTVSS
notes: also called GPB6
In the case of B1, the Kd is reported as 2.26 nM.

Reference: patent publication US20190202908A1 (Harvard, published 2019)
